Measured values published in publication PMC7591462, “The Diversity and Similarity of Transmembrane Trimerization of TNF Receptors” (Frontiers in Cell and Developmental Biology, 2020).

Target: the molecule itself
Experiment: SDS-PAGE of bicelle-reconstituted protein; protein reconstituted in DMPC-DH6PC bicelles (q = 0.5; DMPC:DH6PC approximately 1:2), 20 mM sodium phosphate pH 6.8; mixed with LDS loading buffer without heating or reducing agents; NuPAGE 12% gel, 200 V on ice

B1: human TNFR1 TM fragment, residue 209-238 (TNFR1 TMH), C223A M233A (domain or fragment, UniProt P19438 209-238, looked up)
chain: GTTVLLPLVIFFGLALLSLLFIGLAYRYQR
notes: TNFR1 (tumor necrosis factor receptor 1), human, isoform 1, transmembrane fragment residues 209-238 with C223A and M233A; Released from His9-TrpLE by cyanogen bromide at a methionine added between TrpLE and the fragment; Isotope-labelled (15N, 13C, 2H) for NMR; also called TNFR TMH; TMH of TNFR1; source: reconstituted in DMPC-DH6PC bicelles; not shown: His9, N-terminal, cleaved; TrpLE, …
stoichiometry N: 3
